Data taken from article PMC6787221.

Columns and labels:
[1] = target: STAM2 UIM-SH3 with the linker shortened by 14 amino acids (human); assay: NMR titration; 1H-15N HSQC chemical shift perturbation of 15N-labelled US-WT, US-Δ1, US-Δ2 upon addition of unlabelled Lys63-Ub2 until saturation; 15 °C, 20 mM sodium phosphate pH 6.8, 10% D2O, 0.02% NaN3; 2:1 model (each domain interacts with one unit of Lys63-Ub2)
[2] = target: STAM2 UIM-SH3 with the linker shortened by 7 amino acids (human); assay: as above

KD at the SH3 domain [1]: 483 µM
KD at the SH3 domain [2]: 253 µM
Substance: Lys63-linked diubiquitin (from UniProt P0CG48 1-76) (complex)
